This note sets out measurements from patent publication US20200299389A1.

For experiment [1], the target named is VEGF165 (UniProt P15692). In words: cell-based or functional assay.
The target of experiment [2] is VEGF165 (UniProt P15692). In words: ELISA. Particulars: Fc fusion. (In general: In an ELISA, binding on a coated surface is turned into a signal by an enzyme label.)

Sequence of VEGF165 (P15692 other isoform, or with tags, fused parts or gaps): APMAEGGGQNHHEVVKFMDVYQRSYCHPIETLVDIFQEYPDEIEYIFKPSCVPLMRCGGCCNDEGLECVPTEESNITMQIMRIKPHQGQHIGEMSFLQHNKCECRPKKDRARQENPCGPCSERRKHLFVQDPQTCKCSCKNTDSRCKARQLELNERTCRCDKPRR

Consider “VEGFR-Fc (aflibercept) (from UniProt P17948 129-230; P35968 225-327) (Fc fusion)”, for which the inhibition of VEGF165-stimulated HUVEC proliferation (IC50) in experiment [1] stood at 0.107 nM.
What is called EC50 is the concentration needed to bring the measured effect to its halfway point. Substance “VEGFR-Fc (aflibercept) (from UniProt P17948 129-230; P35968 225-327)” showed an EC50 in experiment [2] of 0.057 nM. This lies in the picomolar range.
